Source: the supplement of paper PMC10567573

B1: FAM107A (parent)
chain: HRRGLGVDSKPELQRVLEHRRRNQ
B2: SMG5 (parent)
chain: QEKLQVLMAEGLLPAVKVFLDWLR

Variants of: B1
Assay: protein stability index of a GFP-peptide fusion (GPS, HEK-293T) (PSI 1-6); higher = more stable
Conditions: c terminus: a fixed tail appended
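Also: lentivirally expressed fusions sorted by FACS into six bins by GFP to DsRed ratio, PSI derived from sequencing read proportions per bin multiplied by bin number.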

Protein stability index of substitutions, site by site:
Q24: D 3.81 | V 3.24 | C 3.59 | P 2.74 | S 3.57 | M 2.88 | T 3.78 | E 4.59 | Y 2.79 | I 2.4 | N 4.19 | W 2.73 | H 3.64
N23: V 3.33 | P 3.03 | R 3.26 | F 4.65 | L 2.35 | A 2.99 | E 3.52 | C 2.37 | I 2.32 | D 3.85 | H 2.74
R20: N 4.04 | I 3.78 | L 3.31 | Y 3.41 | D 3.98 | E 4.33 | F 2.69 | W 3.47 | S 4.27 | K 4.79 | G 3.95 | C 4.53
G6: I 3.68 | F 3.06 | D 2.51 | A 1.82 | H 3.22 | T 2.78 | P 4.63 | M 4.25
H1: K 4.53 | R 4.55 | S 4.16 | T 4.04 | L 4.8 | C 3.42 | V 4.43 | P 2 | A 3.52 | N 4.5 | E 4.92 | W 3.11
D8: Q 3.34 | G 3.42 | H 3.74 | V 4.07 | T 4.41 | S 2.41 | R 4.26 | I 3.74 | N 3 | C 3.08 | A 2.92 | M 3.18 | P 2.54
E18: N 4.02 | L 3.98 | F 3.93 | T 3.58 | Y 4.17 | A 3.57 | M 2.48 | P 5.02 | R 4.12 | Q 2.67 | S 2.71
H19: N 4.93 | R 4.54 | M 4.13 | L 4.45 | K 4.29 | D 5.29 | Q 3.67 | I 4.04 | W 1.53 | G 4.68 | S 4.82 | C 2.01 | P 4.29
R22: A 4.63 | Y 3.82 | W 2.46 | H 3.55 | P 4.36 | F 3.43 | L 3.4 | D 4.62 | S 4.79 | K 4.46 | T 3.76 | C 3.6 | Q 3.57 | G 3.64
L17: A 4.92 | K 4.53 | W 3.71 | Y 4.56 | H 4.34 | P 4.7 | I 4.76 | Q 4.99 | M 4.14 | S 4.79 | C 5.08 | V 4.17 | E 4.21
R15: M 4.06 | D 4.26 | W 3.21 | A 4.26 | Q 3.56 | G 5.35 | H 4.25 | T 4.34 | F 4.19 | E 4.17 | K 3.31 | P 4.89 | S 4.43
K10: N 4.48 | L 2.36 | E 4.55 | H 4.18 | M 4.27 | W 2.6 | A 4.56 | G 4.5 | T 4.38 | Q 4.92
R21: E 5.04 | C 3.39 | L 3.77 | T 3.48 | M 4.09 | K 4.15 | I 3.86 | D 4.11 | S 3.37 | H 4.38 | W 3.64 | Y 3.98
Q14: H 3.48 | I 2.75 | G 4.8 | C 4.03 | M 2.81 | T 4.28 | V 3.86 | F 3.62 | N 4.5 | D 4.07 | K 3.39
R2: F 4.86 | N 4.2 | V 5 | H 4.05 | Q 4.58 | L 3.91 | I 3.4 | Y 5.39 | C 4.78 | W 3.71 | K 3.05
V7: C 3.07 | T 4.79 | Y 4.23 | F 3.42 | R 4.39 | K 4.33 | M 3.62 | S 4.88 | H 2.61 | D 4.93
V16: K 4.47 | N 4.76 | Y 4.46 | C 4.44 | D 4.25 | H 3.96 | A 4.83 | P 4.89 | I 3.63 | L 4.03 | S 4.01 | G 5.55
R3: E 4.2 | G 5.11 | F 3.9 | T 4.92 | I 4.29 | P 4.55 | W 4.22 | A 4.9 | N 4.25 | K 4.52 | Q 3.65 | S 4.91 | C 3.97 | V 4.74 | L 4.14
S9: I 4.66 | Y 4.16 | F 3.52 | V 3.98 | W 3.55 | M 4.14 | E 4.39 | A 2.99 | K 4.76 | G 4.41 | D 4.67 | R 4.8 | H 4.46 | L 4.15 | P 4.38
L5: P 4.16 | H 4.21 | R 5.2 | I 3.15 | F 4.13 | Q 5.16 | T 4.82 | V 3.46 | K 4.04 | M 4.52 | A 4 | E 4.34 | Y 4.66
P11: I 3.42 | A 4.05 | C 4.13 | H 4.35 | M 3.99 | Q 3.73 | Y 2.59 | K 3.82 | G 4.55 | R 4.13 | D 4.29 | T 3.51
E12: D 2.18 | L 4.02 | K 4.18 | A 4.3 | C 4.11 | R 2.99 | W 3.5
L13: S 4.93 | V 3.94 | M 4 | K 4.97 | D 5.59 | G 4.94 | I 4.71 | T 5.23 | F 4.75 | E 5.77 | N 5.21 | A 4.31 | C 3.67 | H 4.93 | Y 4.95
G4: K 5.72 | P 4.8 | S 3.63 | C 4.02 | E 5.08 | F 4.72 | D 4.49 | H 4.3 | R 4.2 | V 4.87 | N 4.42 | I 4.21 | T 3.35 | Q 4.33

Variants of: B2
Assay: as above
Conditions: c terminus: a fixed tail appended

Protein stability index, by site and new letter:
L23: G 2.66 | S 2.57 | M 4.59 | C 1.08 | Q 1.91 | E 1.26 | V 1.67 | N 2.58 | W 1.7 | I 2.39 | T 1.19 | D 2.75 | R 2.38 | Y 1.97 | F 2.67 | H 1.27 | P 2.21 | K 1.83 | A 1.72
W22: V 1.62 | T 1.91 | Y 2.13 | S 2.17 | Q 2.38 | R 1.95
R24: G 1.43 | N 1.92 | C 1.59 | F 2.23 | I 1.93 | T 1.88 | L 2.96 | M 1.89 | E 2.5 | K 2.45 | D 2 | Q 1.75 | S 2.62 | H 2.6 | V 1.67 | A 1.21 | P 3.34 | Y 1.91 | W 1.83
